According to the supplement of paper PMC12042874:
± gives the uncertainty stated by the source.

Assay: amyloid nucleation score (Sup35N fusion, yeast selection) (log enrichment); library NNK3; higher = more nucleation; inactive = no reads after selection
Outline: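 Sup35N fusions to peptides of 20 random codons were expressed in psi-negative yeast, induced 24 hours with 100 μM copper sulfate, and grown 7 days at 30°C on medium lacking adenine and uracil. Input and output plasmid inserts were sequenced by Illumina. The nucleation score is the DiMSum log enrichment of output over input reads, centred on the mode score of non-aggregating sequences. Sequences with under 100 input reads were excluded.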

Substance | amyloid nucleation score
LCLSSCWYTRGH | inactive
LCMADYVRGTWVYVPYFWMC | inactive
LCMMMPRIIQFICHSYEHVD | inactive
LCPRRMA | 0.592 ± 0.29
LCPVGCFRCATGPFVKCDVY | inactive
LCSNLSGDVYELVSHFPGGD | inactive
LCTLYWNGARWSRCFATTFY | inactive
LCVLPMSSTRGPHNICSTLL | inactive
LCVNCLPRSLIFDSSIWRVD | 0.296 ± 0.87
LCYTPRGNKFTHLKW | 0.595 ± 0.18
LDCHVS | inactive
LDEIWIKDFSMSSHVAGRHS | inactive
LDFVYCNAVFWTLNGFLNCA | 1.78 ± 0.078
LDHAKRHIIVPEYLSLAKKQ | inactive
LDHIGKFLFRVTGCCITFTR | inactive
LDIDSFYCVLR | 1.23 ± 0.12
LDKCNHS | inactive
LDQPGPDNLNVVNKLNFDWH | 0.419 ± 0.26
LDRCDHSIVCR | inactive
LDTYCIVDRDNRCGRNVVLY | inactive
LDVKQSSRSLREAVDVFNNH | inactive
LEERLNFGKYAVGDGYTLV | inactive
LEGLSKNQWGCLDATCSYTE | inactive

Substance | amyloid nucleation score
LEITALLTVRMHVDS | inactive
LEMGSGSHFSGDSWAHPLRG | inactive
LFATAEPMLRWVRSRLV | inactive
LFAYRWGIYFRLKVEYFVDS | inactive
LFCVLP | inactive
LFDILGMYEDMASVGFCIPQ | inactive
LFDLVYRWTWNED | -0.592 ± 0.76
LFDVKDRSTMVVVIPCFHGS | 2.23 ± 0.065
LFGDMIMVSSCWSKRNCSVA | inactive
LFIWCTFFVIMFCSTTRVSI | 1.17 ± 0.16
LFKYLPCARRVQGRES | inactive
LFMYMMPQGPSVTANMELVI | -0.742 ± 1.1
LFNGFVDTMESIVSFDNTSY | inactive
LFNTRERRYMEWPTAWRLRR | inactive
LFQIM | inactive
LFRLYRLL | inactive
LFRPSL | inactive
LFSMSVSASHHWLERSFLTR | inactive
LFSTMFDTIENYNIGCTCGF | 2.01 ± 0.053
LFSTNNYNQLWGMVGFLGFG | inactive
LFTLKLTVSKMKLWLLYGCS | inactive
LFVNNVVFHFIFLCPVHRTV | 2.75 ± 0.06
LFVYVIQYVISVI | 0.74 ± 0.14

Substance | amyloid nucleation score
LFWSWYGGWKLNWGI | 0.661 ± 0.14
LFYFKRFWYVLLLANLLDM | inactive
LGCREDFCERIGCVLRVMLE | inactive
LGGLYLLIFLRSGPRRWSGT | inactive
LGICGVRRSLMKRR | inactive
LGLRHDICITDRINSGLRGS | inactive
LGQFDTDTLAHDSMGAGNAV | 1.24 ± 0.16
LGRKNGGAVNVRRPHFDWDG | inactive
LGSFNDVWIVCADWFAFLKV | inactive
LGVFSRRACYLFRICLTELI | inactive
LGVYYVNNRYFADFKGVEHG | 0.154 ± 0.67
LGWSMFLFDFSFKVKSH | inactive
LGYDRQGLLTEVYRFSYIIL | inactive
LHAWAVVLGFLETP | inactive
LHCFIAQFMQRYFREWSGNG | inactive
LHFGDMLLVCNTFFELRVLH | 1.73 ± 0.08
LHGNLRNLI | inactive
LHITYGSFCTLVFLIIVRWF | inactive
LIALNYVWYTAQ | inactive
LIHVGRFTVRTKL | inactive
LIKSSRLCLPKYTGVCNSHK | -0.189 ± 0.88
LILNYGGLPWFIPIP | inactive
LINEECFFACVEVIGNVFRV | -0.888 ± 1.1

Substance | amyloid nucleation score
LIPFCAVHPLWEHHLSKSFF | inactive
LIQDFTSSGRI | inactive
LIQVIGLSIALRTMSCLRGS | inactive
LIRPDCEDTRFCIRSWDCQG | inactive
LIRYPGRSEDTVRFWRERMG | inactive
LIVSIYMCGCRKRITFLRVS | inactive
LKARYYNYIASERSGCEFHK | inactive
LKDLGYELIILAFKRLFLCC | inactive
LKIAQHRGSVFNGDKK | inactive
LKIGTFCSNPGSLIVVYLTV | inactive
LKLFLRVYCIDI | 0.535 ± 0.23
LKPLGDSADGRWQLLWNSAD | inactive
LKSMLLFSMRSRSVKCCGGE | inactive
LKVCNISDWFNIACSVMSFH | 1.93 ± 0.086
LKVTSFKALHCLTAYHSSPL | inactive
LKVVVDQKVG | 1.27 ± 0.15
LKWAV | inactive
LLAGQAIEIDVCAQGLKLKF | -0.968 ± 1.8
LLCNESILKPVTPKWRDCKL | inactive
LLELRVVRLRTNVAVVHIYV | inactive
LLEQMQGFRLIQSGVHNTLM | inactive
LLFDDKCYGLVVDNYRYANI | inactive
LLFSAKGFECLMFVNRLYLA | inactive

Substance | amyloid nucleation score
LLFSLHCCCKSTYFFKSFLN | inactive
LLFTCQSDKDYVRFFVQFNW | inactive
LLGLFRLFKPQAFKGSPAAS | inactive
LLIMKGCAC | inactive
LLIVFLIFRMLRLAGASI | inactive
LLLASVRVRFRHWPTYLRYF | inactive
LLLCYYNGIWRFDGRLS | inactive
LLLFRKRLMLPRVLQQVPRH | inactive
LLLIFS | inactive
LLLSSILRYS | inactive
LLLSTRID | inactive
LLMFHCQMMSLGGYTSVSAR | inactive
LLMYARYSG | 1.52 ± 0.11
LLQFLMFARNSMIKVVRSMV | inactive
LLRVNSEAGESCQVSFTFNM | 1.73 ± 0.093
LLSETAHLFVFT | inactive
LLSPEEGGLKSECRRWSGAL | inactive
LLTGFLSKVSGQS | inactive
LLTIKN | inactive
LLVCVFFGVLKIYFIVAIRW | inactive
LLVESMDGGRPILQDGLFKY | inactive
LLVMGFCRVLCDLGGRYVRV | inactive
LLVPILCPFKV | inactive

Substance | amyloid nucleation score
LLVSIFLGYPQ | inactive
LLVTDYGFELTVQLWNKRSL | -0.155 ± 0.33
LLWKKRVEEDSWLHTGSERM | 0.904 ± 0.15
LLYIRC | 0.705 ± 0.23
LMDLNADKWHNAFTYSSVVE | inactive
LMFEL | inactive
LMFSMRTDRSMCGKDPLKRA | inactive
LMFYGFYLVLRGS | inactive
LMGGQMRDIVFHMQGF | 1.45 ± 0.1
LMGLNYAWDAFWLIFPGLCF | inactive
LMIVLKLP | inactive
LMLEASCCSHAEFPHGVKMR | inactive
LMLLIFAWFQILTVRIRLFR | inactive
LMPWTMSIWGL | inactive
LMSAFSIRRGYCCVENSASR | inactive
LNACSGFTFLFNRVVIKVIL | -0.42 ± 0.8
LNDGWVLIYYSGALSDREI | inactive
LNEVTVLTIMMCLRS | 0.971 ± 0.16
LNFEATSYLTMRYDLSYVRF | inactive
LNFMWRGMY | -0.135 ± 0.62
LNHYECSW | inactive
LNIMVE | inactive
LNLETLISWLSVCPRGRTEE | inactive

Substance | amyloid nucleation score
LNLLKLRKKAPHRPIPGRSG | inactive
LNLNFKVRGL | 0.654 ± 0.27
LNMGVTRLDLISLGWGSVSL | -0.41 ± 0.75
LNNWSKRVFLSPVPVWHSMS | -0.619 ± 1.9
LNSVKAGFINTKDPVMDSMC | -0.254 ± 0.84
LNTCNVFKYFVSGKRFREVG | inactive
LNTLGKNNIKRSILRRSLYY | inactive
LNWLITYLGKR | 2.24 ± 0.092
LPFNGTGTAWCSAGAQLFGR | 0.837 ± 0.15
LPLADLKGMASASFKDGKVF | inactive
LPLVVIFQLSTYVRQWYA | 0.618 ± 0.28
LPSICVSPI | inactive
LPWTLGVFGLMY | inactive
LQANAI | inactive
LQDKQCHVWDYASGIAYVVE | inactive
LQHVIFSYLLVGASSFRFHP | inactive
LQYLRDCEFCRYVCYCNWLY | 0.443 ± 0.34
LQYWSFKSSSYGGLDIYCEA | inactive
LREQGRNTSR | inactive
LRFGHHMGYEWHLSRKVGSK | inactive
LRFNDYMC | inactive
